Molecular target: 1-acyl-sn-glycerol-3-phosphate acyltransferase alpha (AGPAT1), endogenous in human cells (human (endogenous in Huh7, HAP1, ERMS)) (UniProt Q99943)
Assay: immunostaining of cells or tissue

Sequence of UniProt Q99943 (Q99943 27-283): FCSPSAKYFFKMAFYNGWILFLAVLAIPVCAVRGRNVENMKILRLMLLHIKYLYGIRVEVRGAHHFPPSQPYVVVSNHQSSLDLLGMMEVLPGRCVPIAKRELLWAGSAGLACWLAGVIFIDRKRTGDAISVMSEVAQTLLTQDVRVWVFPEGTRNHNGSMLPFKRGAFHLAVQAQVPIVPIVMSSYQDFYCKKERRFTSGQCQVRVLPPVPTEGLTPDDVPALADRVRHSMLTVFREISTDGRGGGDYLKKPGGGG

Chikungunya virus (CHIKV) particles, sucrose gradient-purified, strain IND-06-Guj (complex)
reduction of CHIKV binding (MIFD) in AGPAT1 KO against WT HAP1 cells: 85%

From paper PMC13011415
